US20130150301A1 (KAI PHARMACEUTICALS, published 2013)
Ends that are not written are not given here.

T1: human calcium-sensing receptor (CaSR) (human, UniProt P41180 20-1078)
T1 sequence (looked up): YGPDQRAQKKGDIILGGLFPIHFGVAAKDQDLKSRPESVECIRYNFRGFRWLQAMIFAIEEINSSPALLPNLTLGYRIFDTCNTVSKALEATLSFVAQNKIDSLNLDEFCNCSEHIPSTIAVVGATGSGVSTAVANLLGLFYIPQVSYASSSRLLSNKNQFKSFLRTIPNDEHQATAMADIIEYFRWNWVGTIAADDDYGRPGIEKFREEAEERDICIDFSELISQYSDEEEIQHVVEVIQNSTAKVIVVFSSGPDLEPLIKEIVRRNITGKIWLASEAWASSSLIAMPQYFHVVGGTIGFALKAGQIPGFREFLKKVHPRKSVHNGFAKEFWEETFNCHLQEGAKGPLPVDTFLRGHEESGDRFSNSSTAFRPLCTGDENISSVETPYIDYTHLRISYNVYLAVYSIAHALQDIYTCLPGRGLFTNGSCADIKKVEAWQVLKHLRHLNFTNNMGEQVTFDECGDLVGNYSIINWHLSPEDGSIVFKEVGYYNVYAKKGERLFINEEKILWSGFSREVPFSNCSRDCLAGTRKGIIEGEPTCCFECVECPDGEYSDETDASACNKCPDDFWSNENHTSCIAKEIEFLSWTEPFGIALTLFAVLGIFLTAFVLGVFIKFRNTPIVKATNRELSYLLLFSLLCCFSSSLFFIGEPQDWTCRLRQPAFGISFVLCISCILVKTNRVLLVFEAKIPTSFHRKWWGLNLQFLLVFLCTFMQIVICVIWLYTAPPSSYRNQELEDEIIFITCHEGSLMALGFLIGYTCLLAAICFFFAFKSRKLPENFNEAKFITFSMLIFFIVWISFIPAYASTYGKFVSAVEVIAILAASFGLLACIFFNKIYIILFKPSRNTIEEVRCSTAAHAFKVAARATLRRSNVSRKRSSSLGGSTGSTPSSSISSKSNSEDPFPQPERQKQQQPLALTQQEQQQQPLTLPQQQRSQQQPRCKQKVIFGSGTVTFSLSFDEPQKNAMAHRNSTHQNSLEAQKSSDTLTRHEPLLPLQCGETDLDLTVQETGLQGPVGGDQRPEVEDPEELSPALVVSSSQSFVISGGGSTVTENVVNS

B1: Ac-crrarrr-NH2 (SEQ ID NO: 10) (peptide)
peptide: XXXXXXX
HELM: PEPTIDE1{[ac].[dC].[dR].[dR].[dA].[dR].[dR].[dR].[am]}$$$$V2.0
SMILES: CC(=O)N[C@H](CS)C(=O)N[C@H](CCCNC(=N)N)C(=O)N[C@H](CCCNC(=N)N)C(=O)N[C@H](C)C(=O)N[C@H](CCCNC(=N)N)C(=O)N[C@H](CCCNC(=N)N)C(=O)N[C@H](CCCNC(=N)N)C(N)=O
B2: Ac-crrrrra-NH2 (SEQ ID NO: 13) (peptide)
peptide: XXXXXXX
HELM: PEPTIDE1{[ac].[dC].[dR].[dR].[dR].[dR].[dR].[dA].[am]}$$$$V2.0
SMILES: CC(=O)N[C@H](CS)C(=O)N[C@H](CCCNC(=N)N)C(=O)N[C@H](CCCNC(=N)N)C(=O)N[C@H](CCCNC(=N)N)C(=O)N[C@H](CCCNC(=N)N)C(=O)N[C@H](CCCNC(=N)N)C(=O)N[C@H](C)C(N)=O
B3: Ac-CaRrRaR-NH2 (SEQ ID NO: 44) (peptide)
peptide: CXRXRXR
modifications: N-terminal acetyl; C-terminal amide; L-Cys 1, D-Ala 2, L-Arg 3, D-Arg 4, L-Arg 5, D-Ala 6, L-Arg 7
B4: Ac-carrrrr-NH2 (SEQ ID NO: 8) (peptide)
peptide: XXXXXXX
HELM: PEPTIDE1{[ac].[dC].[dA].[dR].[dR].[dR].[dR].[dR].[am]}$$$$V2.0
SMILES: CC(=O)N[C@H](CS)C(=O)N[C@H](C)C(=O)N[C@H](CCCNC(=N)N)C(=O)N[C@H](CCCNC(=N)N)C(=O)N[C@H](CCCNC(=N)N)C(=O)N[C@H](CCCNC(=N)N)C(=O)N[C@H](CCCNC(=N)N)C(N)=O
B5: Ac-cArrrAr-NH2 (SEQ ID NO: 43) (peptide)
peptide: XAXXXAX
modifications: N-terminal acetyl; C-terminal amide; D-Cys 1, L-Ala 2 and 6, D-Arg 3, 4, 5 and 7
B6: Ac-crarrrr-NH2 (SEQ ID NO: 9) (peptide)
peptide: XXXXXXX
HELM: PEPTIDE1{[ac].[dC].[dR].[dA].[dR].[dR].[dR].[dR].[am]}$$$$V2.0
SMILES: CC(=O)N[C@H](CS)C(=O)N[C@H](CCCNC(=N)N)C(=O)N[C@H](C)C(=O)N[C@H](CCCNC(=N)N)C(=O)N[C@H](CCCNC(=N)N)C(=O)N[C@H](CCCNC(=N)N)C(=O)N[C@H](CCCNC(=N)N)C(N)=O
B7: conjugate of SEQ ID NO: 46 (CPDYHDAGI) and SEQ ID NO: 47 (Ac-CYGRKKRRQRRR-NH2) (peptide)
peptide 1: CPDYHDAGI
peptide 2: Ac-CYGRKKRRQRRR-NH2
modifications: not fully specified; cysteine pairing not given here
B8: Ac-bAla-crrrrrr-NH2 (SEQ ID NO: 30) (peptide)
peptide: XXXXXXXX
modifications: acetylated beta-alanine (Ac-bAla) at the N-terminus; C-terminal amide; D-Cys and six D-Arg
B9: Ac-c(PEG5-C)rrrrrr-NH2 (SEQ ID NO: 58) (peptide)
peptide: XXXXXXX
modifications: N-terminal acetyl; C-terminal amide; all D-residues; L-Cys carrying a 5 kDa polyethylene glycol (PEG5-C) attached to the side chain of D-Cys 1
B10: Ac-c(C)arrrar-NH2 (SEQ ID NO: 3) (peptide)
peptide: XXXXXXX
modifications: N-terminal acetyl; C-terminal amide; all seven residues D; D-Cys 1 conjugated via a disulfide linkage to an L-Cys residue (C)
B11: Ac-cygrkkrrqrrr-NH2 (SEQ ID NO: 50) (peptide)
peptide: XXXXXXXXXXXX
modifications: N-terminal acetyl; C-terminal amide; all D-residues (glycine printed in lower case)
B12: Ac-dHcy rrrrrr-NH2 (SEQ ID NO: 32) (peptide)
peptide: XXXXXXX
modifications: N-terminal acetyl; C-terminal amide; D-homocysteine (dHcy) at position 1; D-Arg 2-7
B13: Ac-caaarrrrrr-NH2 (SEQ ID NO: 77) (peptide)
peptide: XXXXXXXXXX
HELM: PEPTIDE1{[ac].[dC].[dA].[dA].[dA].[dR].[dR].[dR].[dR].[dR].[dR].[am]}$$$$V2.0
SMILES: CC(=O)N[C@H](CS)C(=O)N[C@H](C)C(=O)N[C@H](C)C(=O)N[C@H](C)C(=O)N[C@H](CCCNC(=N)N)C(=O)N[C@H](CCCNC(=N)N)C(=O)N[C@H](CCCNC(=N)N)C(=O)N[C@H](CCCNC(=N)N)C(=O)N[C@H](CCCNC(=N)N)C(=O)N[C@H](CCCNC(=N)N)C(N)=O
B14: Ac-c(Benzoyl)rrrrrr-NH2 (SEQ ID NO: 81) (peptide)
peptide: XXXXXXX
modifications: N-terminal acetyl; C-terminal amide; all D-residues; benzoyl attached to the side chain of D-Cys 1
B15: c(C)arrrar-NH2 (SEQ ID NO: 60) (peptide)
peptide: XXXXXXX
modifications: no N-terminal cap; C-terminal amide; all D-residues; L-Cys (C) attached to the side chain of D-Cys 1
B16: Ac-c(Ac-C)arrrar-NH2 (SEQ ID NO: 55) (peptide)
peptide: XXXXXXX
modifications: N-terminal acetyl; C-terminal amide; all D-residues; N-acetylated L-Cys (Ac-C) attached to the side chain of D-Cys 1
B17: Ac-C(C)arrrar-NH2 (SEQ ID NO: 34) (peptide)
peptide: XXXXXXX
modifications: not fully specified; N-terminal acetyl; C-terminal amide; L-Cys 1 conjugated via a disulfide linkage to an L-Cys residue (C); residues 2-7 D
B18: Ac-c(GS)rrrrrr-NH2 (SEQ ID NO: 53) (peptide)
peptide: XXXXXXX
modifications: not fully specified; N-terminal acetyl; C-terminal amide; all D-residues; oxidized glutathione (GS) attached to the side chain of D-Cys 1
B19: conjugate of SEQ ID NO: 45 (CHDAPIGYD) and SEQ ID NO: 47 (Ac-CYGRKKRRQRRR-NH2) (peptide)
peptide 1: CHDAPIGYD
peptide 2: Ac-CYGRKKRRQRRR-NH2
modifications: not fully specified; cysteine pairing not given here; also: further groups not given here
B20: Ac-c(acetyl)rrrrrr-NH2 (SEQ ID NO: 82) (peptide)
peptide: XXXXXXX
modifications: N-terminal acetyl; C-terminal amide; all D-residues; acetyl attached to the side chain of D-Cys 1
B21: Ac-c(Mpa)arrrar-NH2 (SEQ ID NO: 56) (peptide)
peptide: XXXXXXX
modifications: N-terminal acetyl; C-terminal amide; all D-residues; mercaptopropionic acid (Mpa) attached to the side chain of D-Cys 1
B22: Ac-bAla-c(C)arrrar-NH2 (SEQ ID NO: 61) (peptide)
peptide: XXXXXXXX
modifications: acetylated beta-alanine (Ac-bAla) at the N-terminus; C-terminal amide; carrrar all D; L-Cys (C) attached to the side chain of the D-Cys

target: T1, human calcium-sensing receptor (CaSR); test: cell-based or functional assay

| Binder | fold reduction in potency against Ac-carrrar-NH2 (SEQ ID NO:26) | fold loss in in vitro potency against Ac-crrrrrr-NH2 (SEQ ID NO:6), human CaSR assay in HEK 293 cells | fold difference in potency against the CaSR, against Ac-crrrrrr-NH2 (SEQ ID NO:6) | fold difference in potency against Ac-carrrar-NH2 (SEQ ID NO:26) | fold decrease in potency against Ac-carrrar-NH2 (SEQ ID NO:26) | shift in potency (HEK-293 in vitro cell assay), 4 against 5 arginine subunits |
| --- | --- | --- | --- | --- | --- | --- |
| XGXXXGX (N-terminal acetyl; C-terminal amide; D-Cys 1, Gly 2 and 6, D-Arg 3, 4, 5 and 7) [Ac-cGrrrGr-NH2 (SEQ ID NO: 42)] | < 8 fold |  |  |  |  |  |
| B1 |  | ~2 fold |  |  |  |  |
| B2 |  | ~2 fold |  |  |  |  |
| XXXXXXX (N-terminal acetyl; C-terminal amide; all D-residues) [Ac-carrrar-NH2 (SEQ ID NO: 26)] |  |  | ~3 fold |  |  |  |
| B3 |  |  | 10 fold | < 4 fold |  |  |
| B4 |  | ~2 fold |  |  |  |  |
| B5 |  |  | > 2000 fold |  | > 600 fold |  |
| B6 |  | ~2 fold |  |  |  |  |
| XXXXX (N-terminal acetyl; C-terminal amide; all D-residues) [Ac-crrrr-NH2 (SEQ ID NO: 4)] |  |  |  |  |  | > 10 fold |

target: T1, human calcium-sensing receptor (CaSR); test: cell-based or functional assay; remark: another data set of the same source

| Binder | EC50 (IP1 production in HEK293 cells that express the human CaSR) |
| --- | --- |
| B7 | 21 µM |
| B8 | 1 µM |
| B9 | 0.58 µM |
| Ac-YGRKKRRQRRR-NH2 [Ac-YGRKKRRQRRR-NH2 (SEQ ID NO: 48)] | 16 µM |
| B10 | 10 µM |
| B11 | 2 µM |
| B12 | 2 µM |
| B13 | 4.6 µM |
| B14 | 3.6 µM |
| Ac-CYGRKKRRQRRR-NH2 [Ac-CYGRKKRRQRRR-NH2 (SEQ ID NO: 47)] | 4.5 µM |
| B15 | 3.1 µM |
| B16 | 21 µM |
| Ac-CARRRAR-NH2 [Ac-CARRRAR-NH2 (SEQ ID NO: 75)] | 58 µM |
| B3 | 5.6 µM |
| B17 | 2.5 µM |
| B18 | 7.8 µM |
| B19 | 21 µM |
| XXXXXXX (N-terminal acetyl; free C-terminal acid (-OH); all D-residues) [Ac-carrrar-OH (SEQ ID NO: 74)] | 31 µM |
| B5 | > 1000 µM |
| XXXXXXX (no N-terminal cap; C-terminal amide; all D-residues) [crrrrrr-NH2 (SEQ ID NO: 80)] | 1.1 µM |
| B20 | 4.1 µM |
| XXXXX (N-terminal acetyl; C-terminal amide; all D-residues) [Ac-crrrr-NH2 (SEQ ID NO: 4)] | 16 µM |
| B21 | 21 µM |
| B22 | 2.6 µM |
